Experimental data taken from US20230303660A1.

Molecular target: human 4-1BB (human) (UniProt Q07011)
Test: flow cytometry; dilution series of HEK293T supernatant on Jurkat TPR cells expressing human 4-1BB

Sequence of human 4-1BB (human) (Q07011 24-255): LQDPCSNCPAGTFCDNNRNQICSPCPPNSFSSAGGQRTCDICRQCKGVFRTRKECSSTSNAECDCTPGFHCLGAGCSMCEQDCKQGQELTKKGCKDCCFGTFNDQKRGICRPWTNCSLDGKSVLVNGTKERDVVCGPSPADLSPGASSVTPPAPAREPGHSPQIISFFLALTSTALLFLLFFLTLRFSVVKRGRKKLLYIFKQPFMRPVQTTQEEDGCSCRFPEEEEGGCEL

| supernatant dilution at which binding is no longer detectable (supernatant dilution (1:x)) | Binder |
| --- | --- |
| 512 | s4-1BBL-TriXV (ligand) GSGSNWSHPQFEKGGSGGHHHHHHGGSGGGSRNLVTAFSNMDDMLQKAHLVIEGTFIYLRDSTEFFIRVRDGWKKLQLGELIPIPADSGSLDLRQGMFAQLVAQNVLLIDGPLSWYSDPGLAGVSLTGGLSYKEDTKELVVAKAGVYYVFFQLELRRVVAGEGSGSVSLALHLQPLRSAAGAAALALTVDLPPASSEARNSAFGFQGRLLHLSAGQRLGVHLHTEARARHAWQLTQGATVLGLFRVTPEIPAGLPSPRSE |
| 256 | Triple-s4-1BBL-TriXVIII^LL (ligand) GSGSNWSHPQFEKGGSGGHHHHHHGGSGGGSSGAGGSGGSSGSDGASGSGVRLWATRQAMLGQVHEVPEGWLIFVAEQEELYVRVQNGFRKVQLEARTPLPRGTDNEGSLDLRQGMFAQLVAQNVLLIDGPLSWYSDPGLAGVSLTGGLSYKEDTKELVVAKAGVYYVFFQLELRRVVAGEGSGSVSLALHLQPLRSAAGAAALALTVDLPPASSEARNSAFGFQGRLLHLSAGQRLGVHLHTEARARHAWQLTQGATVLGLFRVTPEIPAGLPSPRSEGGGGSGGGGSGGGGSLDLRQGMFAQLVAQNVLLIDGPLSWYSDPGLAGVSLTGGLSYKEDTKELVVAKAGVYYVFFQLELRRVVAGEGSGSVSLALHLQPLRSAAGAAALALTVDLPPASSEARNSAFGFQGRLLHLSAGQRLGVHLHTEARARHAWQLTQGATVLGLFRVTPEIPAGLPSPRSEGGGGSGGGGSGGGGSLDLRQGMFAQLVAQNVLLIDGPLSWYSDPGLAGVSLTGGLSYKEDTKELVVAKAGVYYVFFQLELRRVVAGEGSGSVSLALHLQPLRSAAGAAALALTVDLPPASSEARNSAFGFQGRLLHLSAGQRLGVHLHTEARARHAWQLTQGATVLGLFRVTPEIPAGLPSPRSE |
